Biological target: CSN3 (human (endogenous in HEK293, HEK293T …, UniProt Q9UNS2 1-423))
Assay: co-IP

Sequence of CSN3 (human (Q9UNS2 whole entry): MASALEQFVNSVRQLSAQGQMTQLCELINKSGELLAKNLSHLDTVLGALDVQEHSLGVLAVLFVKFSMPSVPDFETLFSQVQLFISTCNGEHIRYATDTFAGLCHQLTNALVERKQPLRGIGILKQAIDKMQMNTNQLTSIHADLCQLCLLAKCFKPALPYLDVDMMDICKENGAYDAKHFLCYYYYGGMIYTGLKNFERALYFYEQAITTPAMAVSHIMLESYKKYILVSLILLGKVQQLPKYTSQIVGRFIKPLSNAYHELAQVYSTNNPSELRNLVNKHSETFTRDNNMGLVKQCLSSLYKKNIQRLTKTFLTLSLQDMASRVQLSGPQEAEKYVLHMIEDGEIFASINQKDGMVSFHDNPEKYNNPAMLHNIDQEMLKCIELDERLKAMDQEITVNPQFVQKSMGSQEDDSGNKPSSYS

binding result: binds
B1: CSNAP (CSN Acidic Protein) (natural protein)
chain: MKPAVDEMFPEGAGPYVDLDEAGGSTGLLMDLAANEKAVHADFFNDFEDLFDDDDIQ
